# B1: TRIM55 (parent)
# chain: ICPICLEMFTKPVVILPCQHNLCR
# Variants of: B1
# Assay: protein stability index of a GFP-peptide fusion (GPS, HEK-293T) (PSI 1-6); higher = more stable
# Conditions: c terminus: a fixed tail appended
# 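Further: lentivirally expressed fusions sorted by FACS into six bins by GFP to DsRed ratio, PSI derived from sequencing read proportions per bin multiplied by bin number.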
row,Variant,protein stability index
1,ICPICLEMWTKPVVILPCQHNLCR,2.47
2,ICPICLEMYTKPVVILPCQHNLCR,2.18
3,ICPICLEMFAKPVVILPCQHNLCR,2.23
4,ICPICLEMFCKPVVILPCQHNLCR,2.08
5,ICPICLEMFDKPVVILPCQHNLCR,2.48
6,ICPICLEMFEKPVVILPCQHNLCR,2.59
7,ICPICLEMFFKPVVILPCQHNLCR,1.74
8,ICPICLEMFGKPVVILPCQHNLCR,2.25
9,ICPICLEMFHKPVVILPCQHNLCR,2.27
10,ICPICLEMFIKPVVILPCQHNLCR,1.83
11,ICPICLEMFKKPVVILPCQHNLCR,2.34
12,ICPICLEMFLKPVVILPCQHNLCR,2.59
13,ICPICLEMFMKPVVILPCQHNLCR,2.3
14,ICPICLEMFNKPVVILPCQHNLCR,2.73
15,ICPICLEMFPKPVVILPCQHNLCR,2.46
16,ICPICLEMFQKPVVILPCQHNLCR,3.09
17,ICPICLEMFRKPVVILPCQHNLCR,2.38
18,ICPICLEMFSKPVVILPCQHNLCR,2.74
19,ICPICLEMFVKPVVILPCQHNLCR,1.56
20,ICPICLEMFWKPVVILPCQHNLCR,2.27
21,ICPICLEMFYKPVVILPCQHNLCR,2.06
22,ICPICLEMFTAPVVILPCQHNLCR,3.04
23,ICPICLEMFTCPVVILPCQHNLCR,2.51
24,ICPICLEMFTDPVVILPCQHNLCR,3.28

row,Variant,protein stability index
1,ICPICLEMFTEPVVILPCQHNLCR,2.83
2,ICPICLEMFTFPVVILPCQHNLCR,2.2
3,ICPICLEMFTGPVVILPCQHNLCR,2.56
4,ICPICLEMFTHPVVILPCQHNLCR,2.4
5,ICPICLEMFTIPVVILPCQHNLCR,2.29
6,ICPICLEMFTLPVVILPCQHNLCR,1.9
7,ICPICLEMFTMPVVILPCQHNLCR,1.94
8,ICPICLEMFTNPVVILPCQHNLCR,2.32
9,ICPICLEMFTPPVVILPCQHNLCR,2.35
10,ICPICLEMFTQPVVILPCQHNLCR,2.6
11,ICPICLEMFTRPVVILPCQHNLCR,1.87
12,ICPICLEMFTSPVVILPCQHNLCR,2.67
13,ICPICLEMFTTPVVILPCQHNLCR,2.26
14,ICPICLEMFTVPVVILPCQHNLCR,1.98
15,ICPICLEMFTWPVVILPCQHNLCR,1.93
16,ICPICLEMFTYPVVILPCQHNLCR,1.69
17,ICPICLEMFTKAVVILPCQHNLCR,2.19
18,ICPICLEMFTKCVVILPCQHNLCR,2.42
19,ICPICLEMFTKDVVILPCQHNLCR,2.61
20,ICPICLEMFTKEVVILPCQHNLCR,2.55
21,ICPICLEMFTKFVVILPCQHNLCR,1.55
22,ICPICLEMFTKGVVILPCQHNLCR,2.25
23,ICPICLEMFTKHVVILPCQHNLCR,2.04
24,ICPICLEMFTKIVVILPCQHNLCR,2.23

row,Variant,protein stability index
1,ICPICLEMFTKKVVILPCQHNLCR,2.5
2,ICPICLEMFTKLVVILPCQHNLCR,2.02
3,ICPICLEMFTKMVVILPCQHNLCR,2.25
4,ICPICLEMFTKNVVILPCQHNLCR,2.99
5,ICPICLEMFTKQVVILPCQHNLCR,2.43
6,ICPICLEMFTKRVVILPCQHNLCR,2.05
7,ICPICLEMFTKSVVILPCQHNLCR,2.59
8,ICPICLEMFTKTVVILPCQHNLCR,2.34
9,ICPICLEMFTKVVVILPCQHNLCR,2.29
10,ICPICLEMFTKWVVILPCQHNLCR,1.97
11,ICPICLEMFTKYVVILPCQHNLCR,1.8
12,ICPICLEMFTKPAVILPCQHNLCR,2.37
13,ICPICLEMFTKPCVILPCQHNLCR,2.21
14,ICPICLEMFTKPDVILPCQHNLCR,3.31
15,ICPICLEMFTKPEVILPCQHNLCR,2.61
16,ICPICLEMFTKPFVILPCQHNLCR,2.31
17,ICPICLEMFTKPGVILPCQHNLCR,2.84
18,ICPICLEMFTKPHVILPCQHNLCR,2.63
19,ICPICLEMFTKPIVILPCQHNLCR,2.11
20,ICPICLEMFTKPKVILPCQHNLCR,2.15
21,ICPICLEMFTKPLVILPCQHNLCR,2.26
22,ICPICLEMFTKPMVILPCQHNLCR,2.33
23,ICPICLEMFTKPNVILPCQHNLCR,2.92
24,ICPICLEMFTKPPVILPCQHNLCR,2.23

row,Variant,protein stability index
1,ICPICLEMFTKPQVILPCQHNLCR,3.49
2,ICPICLEMFTKPRVILPCQHNLCR,2.19
3,ICPICLEMFTKPSVILPCQHNLCR,2.58
4,ICPICLEMFTKPTVILPCQHNLCR,2.62
5,ICPICLEMFTKPWVILPCQHNLCR,1.89
6,ICPICLEMFTKPYVILPCQHNLCR,1.99
7,ICPICLEMFTKPVAILPCQHNLCR,2.56
8,ICPICLEMFTKPVCILPCQHNLCR,2.32
9,ICPICLEMFTKPVDILPCQHNLCR,3.31
10,ICPICLEMFTKPVEILPCQHNLCR,3.02
11,ICPICLEMFTKPVFILPCQHNLCR,2.49
12,ICPICLEMFTKPVGILPCQHNLCR,2.54
13,ICPICLEMFTKPVHILPCQHNLCR,2.82
14,ICPICLEMFTKPVIILPCQHNLCR,2.4
15,ICPICLEMFTKPVKILPCQHNLCR,2.33
16,ICPICLEMFTKPVLILPCQHNLCR,2.29
17,ICPICLEMFTKPVMILPCQHNLCR,2.98
18,ICPICLEMFTKPVNILPCQHNLCR,2.93
19,ICPICLEMFTKPVPILPCQHNLCR,2.56
20,ICPICLEMFTKPVQILPCQHNLCR,2.59
21,ICPICLEMFTKPVRILPCQHNLCR,2.47
22,ICPICLEMFTKPVSILPCQHNLCR,3.12
